# B1: A8H, A22K(N^ε-Octadecandioyl-γGlu-[2-(2-{2-[2-(2-aminoethoxy)ethoxy]acetylamino}ethoxy)ethoxy]-acetyl), B29R, desB30 human insulin (ligand)
# chain 1: GIVEQCCHSICSLYQLENYCNK
# chain 2: FVNQHLCGSHLVEALYLVCGERGFFYTPR
# modifications: A22K(N^ε-Octadecandioyl-γGlu-[2-(2-{2-[2-(2-aminoethoxy)ethoxy]acetylamino}ethoxy)ethoxy]-acetyl)
# notes: also called C18-gGlu-OEG-OEG, A8H, A22K, B29R
# B2: A14E, A22K(N^ε-Octadecandioyl-γGlu-(3-[2-(2-{2-[2-(2-{2-[2-(2-aminoethoxy)ethoxy]ethoxy}ethoxy)ethoxy]ethoxy}ethoxy)ethoxy]propionyl)), B25H, B29R, desB30 … (ligand)
# chain 1: GIVEQCCTSICSLEQLENYCNK
# chain 2: FVNQHLCGSHLVEALYLVCGERGFHYTPR
# modifications: A22K(N^ε-Octadecandioyl-γGlu-(3-[2-(2-{2-[2-(2-{2-[2-(2-aminoethoxy)ethoxy]ethoxy}ethoxy)ethoxy]ethoxy}ethoxy)ethoxy]propionyl))
# notes: also called C18-gGlu-PEG7, A14E, A22K, B25H, B29R
# B3: A14E, A22K(N^ε-Eicosanedioyl-γGlu-γGlu-(3-[2-(2-{2-[2-(2-{2-[2-(2-aminoethoxy)ethoxy]ethoxy}ethoxy)ethoxy]ethoxy}ethoxy)ethoxy]propionyl)), B25H, B29R, desB30 … (ligand)
# chain 1: GIVEQCCTSICSLEQLENYCNK
# chain 2: FVNQHLCGSHLVEALYLVCGERGFHYTPR
# modifications: A22K(N^ε-Eicosanedioyl-γGlu-γGlu-(3-[2-(2-{2-[2-(2-{2-[2-(2-aminoethoxy)ethoxy]ethoxy}ethoxy)ethoxy]ethoxy}ethoxy)ethoxy]propionyl))
# notes: also called C20-gGlu-gGlu-PEG7, A14E, A22K, B25H, B29R
# B4: A18L, A22K(N^ε-Octadecandioyl-γGlu-[2-(2-{2-[2-(2-aminoethoxy)ethoxy]acetylamino}ethoxy)ethoxy]-acetyl), B29R, desB30 human insulin (ligand)
# chain 1: GIVEQCCTSICSLYQLELYCNK
# chain 2: FVNQHLCGSHLVEALYLVCGERGFFYTPR
# modifications: A22K(N^ε-Octadecandioyl-γGlu-[2-(2-{2-[2-(2-aminoethoxy)ethoxy]acetylamino}ethoxy)ethoxy]-acetyl)
# notes: also called C18-gGlu-OEG-OEG, A18L, A22K, B29R
# B5: A14E, A22K(N^ε-[2-(2-[2-(2-[2-(Octadecandioyl-γGlu)amino]ethoxy)ethoxy]acetylamino)ethoxy]ethoxy)-acetyl]), B25H, B29R, desB30 human insulin (ligand)
# chain 1: GIVEQCCTSICSLEQLENYCNK
# chain 2: FVNQHLCGSHLVEALYLVCGERGFHYTPR
# modifications: A22K(N^ε-[2-(2-[2-(2-[2-(Octadecandioyl-γGlu)amino]ethoxy)ethoxy]acetylamino)ethoxy]ethoxy)-acetyl])
# notes: also called C18-gGlu-OEG-OEG, A14E, A22K, B25H, B29R
# B6: A14E, A22K(N^ε-Eicosanedioyl-γGlu-(3-(2-{2-[2-(2-aminoethoxy)ethoxy]ethoxy}ethoxy)propionyl)), B25H, B29R, desB30 human insulin (ligand)
# chain 1: GIVEQCCTSICSLEQLENYCNK
# chain 2: FVNQHLCGSHLVEALYLVCGERGFHYTPR
# modifications: A22K(N^ε-Eicosanedioyl-γGlu-(3-(2-{2-[2-(2-aminoethoxy)ethoxy]ethoxy}ethoxy)propionyl))
# notes: also called C20-gGlu-PEG3, A14E, A22K, B25H, B29R
# B7: A14E, A22K(N^ε-Octadecandioyl-γGlu-(3-(2-{2-[2-(2-aminoethoxy)ethoxy]ethoxy}ethoxy)propionyl)-γGlu), B25H, B29R, desB30 human insulin (ligand)
# chain 1: GIVEQCCTSICSLEQLENYCNK
# chain 2: FVNQHLCGSHLVEALYLVCGERGFHYTPR
# modifications: A22K(N^ε-Octadecandioyl-γGlu-(3-(2-{2-[2-(2-aminoethoxy)ethoxy]ethoxy}ethoxy)propionyl)-γGlu)
# notes: also called C18-gGlu-PEG3-gGlu, A14E, A22K, B25H, B29R
# Key:
# [1] = molecular target: T1, purified recombinant human insulin receptor (IR-A) (human, UniProt P06213-2 28-1370, limits assumed); assay: SPA competition, displacement of A14Tyr[125I]-human insulin from human insulin receptor, 0% HSA; relative to desB30 human insulin = 100%
# T1 construct: The receptor was captured on SPA beads through the F12 antibody
# Method: (§1) The affinity of the acylated insulin analogues of this invention for the human insulin receptor is determined by a SPA assay (Scintillation Proximity Assay) microtiterplate antibody capture assay. […] A total of 100 μl reagent mix is then added to each well in the Packard Optiplate and a dilution series of the insulin derivative is made in the Optiplate from appropriate samples. The samples are then incubated for 16 hours while gently shaken. The phases are the then separated by centrifugation for 1 min and the plates counted in a Topcounter. The binding data were fitted using the nonlinear regression algorithm in the GraphPad Prism 2.01 (GraphPad Software, San Diego, Calif.).
# [2] = molecular target: T1, purified recombinant human insulin …; assay: SPA competition, displacement of A14Tyr[125I]-human insulin from human insulin receptor, 4.5% HSA; relative to desB30 human insulin = 100%
# Method: as §1
Binder,IR-A affinity (0% HSA) [1],IR-A affinity (4.5% HSA) [2]
B1,417%,63%
B2,28%,
B3,25%,
B4,339%,23.6%
B5,22.4%,5%
B6,,5.2%
B7,23%,

# Source: patent US20110098440A1 (Novo Nordisk, published 2011)
